The supplement of paper PMC9112550, “Optimization of the antimicrobial peptide Bac7 by deep mutational scanning” (BMC Biology, 2022)

Tested on: Escherichia coli TOP10
Assay: shrunken log2 fold change of peptide-encoding DNA abundance (4.5 h post-induction vs induction); higher = less antimicrobial activity (less host growth inhibition)
Conditions: time post-induction: 4.5 h; library: site-saturation at positions 5, 18, 19, 20
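Note: peptides expressed intracellularly from a pBAD plasmid library in pooled LB shake-flask culture, induced with 0.3% L-arabinose, DNA abundance read by NGS, three biological replicates, DESeq2 with apeglm shrinkage.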

Row | Sequence | shrunken log2 fold change
1 | RRIRFRPPRLPRPRPRPLMAPRP | -0.581
2 | RRIRFRPPRLPRPRPRPLMWPRP | 0.0935
3 | RRIRFRPPRLPRPRPRPLNRPRP | -0.196
4 | RRIRFRPPRLPRPRPRPLQPPRP | 0.104
5 | RRIRFRPPRLPRPRPRPLRCPRP | 0.0723
6 | RRIRFRPPRLPRPRPRPLSFPRP | 0.675
7 | RRIRFRPPRLPRPRPRPLTNPRP | 0.0389
8 | RRIRFRPPRLPRPRPRPLTQPRP | -0.155
9 | RRIRFRPPRLPRPRPRPLVYPRP | -0.631
10 | RRIRFRPPRLPRPRPRPLWDPRP | -0.119
11 | RRIRFRPPRLPRPRPRPLWTPRP | -0.0265
12 | RRIRFRPPRLPRPRPRPLYIPRP | -0.63
13 | RRIRFRPPRLPRPRPRPLYVPRP | -0.631
14 | RRIRFRPPRLPRPRPRPMAKPRP | -0.0311
15 | RRIRFRPPRLPRPRPRPMAMPRP | 0.102
16 | RRIRFRPPRLPRPRPRPMCWPRP | -0.189
17 | RRIRFRPPRLPRPRPRPMCYPRP | -0.416
18 | RRIRFRPPRLPRPRPRPMEPPRP | 0.039
19 | RRIRFRPPRLPRPRPRPMFTPRP | -0.123
20 | RRIRFRPPRLPRPRPRPMHTPRP | 0.5
21 | RRIRFRPPRLPRPRPRPMMMPRP | -0.101
22 | RRIRFRPPRLPRPRPRPMMYPRP | -0.104
23 | RRIRFRPPRLPRPRPRPMNLPRP | -0.623
24 | RRIRFRPPRLPRPRPRPMRFPRP | -0.0257
25 | RRIRFRPPRLPRPRPRPMSDPRP | -0.103

Row | Sequence | shrunken log2 fold change
26 | RRIRFRPPRLPRPRPRPMVGPRP | -0.225
27 | RRIRFRPPRLPRPRPRPMVSPRP | -0.144
28 | RRIRFRPPRLPRPRPRPMWCPRP | 0.0155
29 | RRIRFRPPRLPRPRPRPMWGPRP | -0.136
30 | RRIRFRPPRLPRPRPRPMYVPRP | -1.63
31 | RRIRFRPPRLPRPRPRPMYWPRP | 0.146
32 | RRIRFRPPRLPRPRPRPNDAPRP | 0.186
33 | RRIRFRPPRLPRPRPRPNDIPRP | -0.169
34 | RRIRFRPPRLPRPRPRPNDPPRP | -0.226
35 | RRIRFRPPRLPRPRPRPNDYPRP | -0.355
36 | RRIRFRPPRLPRPRPRPNELPRP | -0.0316
37 | RRIRFRPPRLPRPRPRPNEWPRP | 0.0686
38 | RRIRFRPPRLPRPRPRPNFLPRP | -0.277
39 | RRIRFRPPRLPRPRPRPNGNPRP | -0.377
40 | RRIRFRPPRLPRPRPRPNIMPRP | -0.658
41 | RRIRFRPPRLPRPRPRPNKMPRP | -0.231
42 | RRIRFRPPRLPRPRPRPNLIPRP | -0.347
43 | RRIRFRPPRLPRPRPRPNLRPRP | -0.0383
44 | RRIRFRPPRLPRPRPRPNLVPRP | -0.453
45 | RRIRFRPPRLPRPRPRPNLWPRP | 0.031
46 | RRIRFRPPRLPRPRPRPNNKPRP | -0.646
47 | RRIRFRPPRLPRPRPRPNNPPRP | -0.625
48 | RRIRFRPPRLPRPRPRPNNVPRP | -0.179
49 | RRIRFRPPRLPRPRPRPNPDPRP | -0.0966
50 | RRIRFRPPRLPRPRPRPNPFPRP | 0.0605

Row | Sequence | shrunken log2 fold change
51 | RRIRFRPPRLPRPRPRPNPWPRP | -0.0447
52 | RRIRFRPPRLPRPRPRPNQDPRP | -0.361
53 | RRIRFRPPRLPRPRPRPNQEPRP | 0.229
54 | RRIRFRPPRLPRPRPRPNQQPRP | -0.0474
55 | RRIRFRPPRLPRPRPRPNRWPRP | 0.0144
56 | RRIRFRPPRLPRPRPRPNTAPRP | -0.986
57 | RRIRFRPPRLPRPRPRPNVQPRP | -0.237
58 | RRIRFRPPRLPRPRPRPNYKPRP | -0.735
59 | RRIRFRPPRLPRPRPRPNYTPRP | -1.07
60 | RRIRFRPPRLPRPRPRPPAIPRP | 0.363
61 | RRIRFRPPRLPRPRPRPPAPPRP | 1.07
62 | RRIRFRPPRLPRPRPRPPCCPRP | 0.0896
63 | RRIRFRPPRLPRPRPRPPCTPRP | -0.228
64 | RRIRFRPPRLPRPRPRPPERPRP | 0.891
65 | RRIRFRPPRLPRPRPRPPFSPRP | -0.0847
66 | RRIRFRPPRLPRPRPRPPGHPRP | 0.337
67 | RRIRFRPPRLPRPRPRPPHDPRP | 0.336
68 | RRIRFRPPRLPRPRPRPPILPRP | -0.254
69 | RRIRFRPPRLPRPRPRPPLPPRP | 0.661
70 | RRIRFRPPRLPRPRPRPPMFPRP | -0.0657
71 | RRIRFRPPRLPRPRPRPPMIPRP | -0.224
72 | RRIRFRPPRLPRPRPRPPMKPRP | 0.0021
73 | RRIRFRPPRLPRPRPRPPMYPRP | -0.395
74 | RRIRFRPPRLPRPRPRPPNDPRP | 0.273
75 | RRIRFRPPRLPRPRPRPPVQPRP | 0.3
